We go through 1 molecule from patent publication US20230141962A1.

This test has as its target SARS-CoV-2 spike protein S1 subunit (WIV4) (SARS-CoV-2 (isolate 2019-nCoV, WIV4)), P0DTC2. Conditions: remark: other sources report otherwise.

Broadly, the IC50 is the point on the concentration scale where inhibition reaches its midpoint. Higher therefore signals weaker potency in that assay.

B1: scFv clone #26 (scFv)
scFv: QAVLTQAPSASGTLGQQVTISCSGTTSNIGRNTVNWYQHLPGTAPKLLIFVSNQRPSGVPDRFSGSKSGTSASLVISGLQSEDEADYYCGAWDDSLDGMLFGGGTKLTVLGSRGGGGSGGGGSGGGGSLEMAQVQLVQSGAEVKKPGASVKVSCKASGYTFTSYGISWVRQAPGQGLEWMGWISAYNGNTNYAQKLQGRVTMTTDTSTSTAYMELRSLRSDDTAVYYCARGYYGDLDPWGQGTLVTVSSTSGQAGQ
In the case of B1, the IC50 amounted to 1.33 nM.
